Measurements reported in CN110760489A, “一种川芎咖啡酸-o-甲基转移酶的突变体及其用途” (Southwest Jiaotong University, priority 2019, dated 2020).

Legend:
[1] = substrate: COC(=O)/C=C/c1ccc(O)c(O)c1; assay: 动力学参数值测定 (kinetic parameters, double-reciprocal method), wild-type LcCOMT; type: biochemical, Ligusticum chuanxiong; conditions: other: substrate 咖啡酸甲酯 0.0715-0.25 mM, S-adenosylmethionine 1 mM, pH 7.0, 37℃, HPLC, double-reciprocal plot, 37.0 °C
[2] = substrate: COC(=O)/C=C/c1ccc(O)c(O)c1; assay: 动力学参数值测定 (kinetic parameters, double-reciprocal method), LcCOMT-I318T mutant; type: biochemical, Ligusticum chuanxiong; conditions: other: substrate 咖啡酸甲酯 0.0715-0.25 mM, S-adenosylmethionine 1 mM, pH 7.0, 37℃, HPLC, double-reciprocal plot, 37.0 °C

Row | Protein | Km [1] | Vmax [1] | kcat [1] | Km [2]
1 | Ligusticum chuanxiong caffeic acid O-methyltransferase LcCOMT, wild type [野生型LcCOMT; 川芎咖啡酸-O-甲基转移酶] (Conioselinum anthriscoides) (protein) MNTELIPPTFLEDEEEEACMFAMQLSSASVLPMVLKSAIELNLLESIAKAGPGVYVSPSHLAAGLPSSQPDTPVMLDRILRLLASYSVLNCQLRDLPQGRVERLYGLAPVCKFLTKNSDGVSMAPLLLMNQDKILMESWYHLKDAVLDGGIPFNKAYGMTAFEYHGKDPRFNKVFNQGMSNHSTITMKKILQTYDGFGGLKTVVDVGGGTGATLNMIISKYPNLKGINFDLPHVVEDAPSYPGVEHVGGDMFVSVPKGDAIFMKWICHDWSDAHCLTFLKNCYKALPKDGKVILAECILPEAPDSKLTTKNVIHIDVIMLAHNPGGKERTEKDFEALGKEAGFKSFNKACCAYNTWVIEYYK | 26.4 µM | 2.643*10^-8 M/S | 0.113 S-1 | –
2 | Ligusticum chuanxiong caffeic acid O-methyltransferase LcCOMT variant LcCOMT-I318T (Ile318 to Thr), SEQ ID No.2 [LcCOMT-I318T突变体; 川芎咖啡酸-O-甲基转移酶] (Conioselinum … (protein) MNTELIPPTFLEDEEEEACMFAMQLSSASVLPMVLKSAIELNLLESIAKAGPGVYVSPSHLAAGLPSSQPDTPVMLDRILRLLASYSVLNCQLRDLPQGRVERLYGLAPVCKFLTKNSDGVSMAPLLLMNQDKILMESWYHLKDAVLDGGIPFNKAYGMTAFEYHGKDPRFNKVFNQGMSNHSTITMKKILQTYDGFGGLKTVVDVGGGTGATLNMIISKYPNLKGINFDLPHVVEDAPSYPGVEHVGGDMFVSVPKGDAIFMKWICHDWSDAHCLTFLKNCYKALPKDGKVILAECILPEAPDSKLTTKNVIHIDVTMLAHNPGGKERTEKDFEALGKEAGFKSFNKACCAYNTWVIEYYK | – | – | – | 19.7 µM
